Patent US20100144838A1, “Methods for Identifying Modulators of Pyrimidine Tract Binding Protein” (priority 2008, published 2010)

What was measured:
A2780 sublines = test: Tumor growth in xenograft mouse model; type: in vivo, Athymic nu/nu mice; conditions: subcutaneous A2780 sublines; DOX 2 mg/ml in drinking water from inoculation or 12 days after; FIG. 3
Excerpt: siRNA technology was .used to knock down the expression of PTB in tumor cells and to examine the effects of such manipulations on cell growth and malignant properties. Three siRNA (PTBsi1, PTBsi2, and PTBsi3) sequences targeting different regions of PTB mRNA were used. A siRNA can be generated as described in PCT/US2007/007352, which is herein fully incorporated by reference. Each of PTBsi1, PTBsi2, and PTBsi3 may be generated in a cell from a shRNA, which is formed after transcription of its coding sequence. The annealing of two oligonucleotides generates a DNA fragment with protruding ends compatible with Hind III and Bgl II restriction enzyme sites respectively. The coding sequences for each siRNA were cloned individually into a lentiviral vector downstream of H1 promoter and tetO element and thus the expression of these siRNAs is under control of doxycycline (DOX) (i.e. induced by DOX). We established several stable sublines carrying these expression cassettes. […] We have also examined whether knockdown of PTB could influence ovarian tumor cell growth in xenograft mouse model. […] Invasive cells were counted under microscope with high magnification (150×). […] Tumor sizes were measured in long and short dimensions every three or four days. Tumor size was calculated with formula axb2/2, where a=long dimension and b=short dimension. […]

PTB = test: Gene expression profiling, Affymetrix HG-U133 plus 2 oligonucleotide arrays; type: cell-based; conditions: A2780/PTBsi3 cells treated with DOX
Experimental: Microarray analyses of genome-wide splicing patterns and gene expression profiling were performed in A2780/PTBsi3 cells with or without PTB knockdown. Gene expression profiling was assessed using Affymetrix HG-U133 plus 2 oligonucleotide arrays, and the splicing pattern was assessed by Jivan Biologics' splicing-sensitive microarrays. The former analysis was done three times and the latter was done twice with total RNAs isolated from separate experiments. We also examined the gene expression profile once in the control subline, A2780/LUCsi, grown with or without DOX.
However, in A2780/PTBsi3 cells treated with DOX (i.e. PTB knockdown), 52 genes were found consistently changed more than 2-fold in all three separate experiments. […] In total, we found 50 genes whose expression was regulated by PTB. […] We have validated these changes in a few of these genes (INHBE, CDC42, PTBP2 and PKP4) by real-time PCR or conventional RT-PCR.

B1: PTBsi1: siRNA targeting PTB mRNA, DOX-induced, generated in a cell from shRNA1 (SEQ ID NO: 1 and 2) (nucleic acid)
chain 1: GATCCCCAGGTGACAGCCGAAGTGCATTCAAGAGATGCACTTCGGCTGTCACCTTTTTTGGAAA
chain 2: AGCTTTTCCAAAAATGCACTTCGGCTGTCACCTTCTCTTGAAAGGTGACAGCCGAAGTGCAGGG
With B1 the tumor growth (A2780 sublines) was “grew slower”.

B2: PTBsi3: siRNA targeting PTB mRNA, DOX-induced, generated in a cell from shRNA3 (SEQ ID NO: 5 and 6) (nucleic acid)
chain 1: GATCCCTGACAAGAGCCGTGACTACTTCAAGAGAGTAGTCACGGCTCTTGTCATTTTTGGAAA
chain 2: AGCTTTTCCAAAAATGACAAGAGCCGTGACTACTCTCTTGAAGTAGTCACGGCTCTTGTCAGGG
B2 was tested, and the tumor growth (A2780 sublines) was “grew slower”, the PTB downregulation (PTB; all three experiments) was “about 4 fold” and the “genes consistently changed more than 2-fold” value (PTB; three separate experiments, signal intensity cutoff 200) was 52 genes.
